Source: patent US20250368745A1 (published 2025)

T1: human IL-18BP (human, UniProt O95998 31-194)
T1 construct: UniProt printed as 095998; also called hIL-18BP
T1 sequence: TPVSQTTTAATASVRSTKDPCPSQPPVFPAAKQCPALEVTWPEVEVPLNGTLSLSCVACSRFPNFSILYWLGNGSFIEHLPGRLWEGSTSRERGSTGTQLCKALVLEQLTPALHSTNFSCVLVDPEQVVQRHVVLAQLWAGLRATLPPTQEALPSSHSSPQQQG

T2: cynomolgus IL-18BP (cynomolgus monkey)
T2 construct: also called cyno IL-18BP; cyIL-18BP
T2 chain: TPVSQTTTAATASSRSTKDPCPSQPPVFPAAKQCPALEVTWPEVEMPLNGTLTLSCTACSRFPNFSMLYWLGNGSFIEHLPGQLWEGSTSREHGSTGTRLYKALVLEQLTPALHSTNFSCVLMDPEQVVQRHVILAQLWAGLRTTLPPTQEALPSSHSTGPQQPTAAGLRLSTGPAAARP


Legend:
human IL-18BP = biological target: T1, human IL-18BP; assay: BLI, apparent KD
cynomolgus IL-18BP = biological target: T2, cynomolgus IL-18BP; assay: BLI, apparent KD

Binder | Kd (human IL-18BP) [nM] | Kd (cynomolgus IL-18BP) [nM]
SA301a HC-H52R (antibody, name in Kabat numbering, V domains shown, IgG1 kappa) VH: QVQLQESGPGLVKPSQTLSLTCTVSGYSITSDYNSHWIRQPPGKGLEWIGYIRYSGSTNYNPSLKSRVTISRDTSKNQFSLKLSSVTAADTAVYYCARNYGSIYVNYFDYWGQGTLVTVSS VL: EIVLTQSPATLSLSPGERATLSCSASSSVSYMYWYQQKPGQAPRPLIYRTSNLASGIPARFSGSGSGTDFTLTISSLEPEDFAVYYCQQYHSYPTFGGGTKVEIK | 1.36 | 1.55
SA301a HC-I51F (antibody, name in Kabat numbering, V domains shown, IgG1 kappa) VH: QVQLQESGPGLVKPSQTLSLTCTVSGYSITSDYNSHWIRQPPGKGLEWIGYFHYSGSTNYNPSLKSRVTISRDTSKNQFSLKLSSVTAADTAVYYCARNYGSIYVNYFDYWGQGTLVTVSS VL: EIVLTQSPATLSLSPGERATLSCSASSSVSYMYWYQQKPGQAPRPLIYRTSNLASGIPARFSGSGSGTDFTLTISSLEPEDFAVYYCQQYHSYPTFGGGTKVEIK | 2.38 | 1.55
SA301a HC-I51D (antibody, name in Kabat numbering, V domains shown, IgG1 kappa) VH: QVQLQESGPGLVKPSQTLSLTCTVSGYSITSDYNSHWIRQPPGKGLEWIGYDHYSGSTNYNPSLKSRVTISRDTSKNQFSLKLSSVTAADTAVYYCARNYGSIYVNYFDYWGQGTLVTVSS VL: EIVLTQSPATLSLSPGERATLSCSASSSVSYMYWYQQKPGQAPRPLIYRTSNLASGIPARFSGSGSGTDFTLTISSLEPEDFAVYYCQQYHSYPTFGGGTKVEIK | 1.99 | 2.17
SA301a HC-I51G (antibody, name in Kabat numbering, V domains shown, IgG1 kappa) VH: QVQLQESGPGLVKPSQTLSLTCTVSGYSITSDYNSHWIRQPPGKGLEWIGYGHYSGSTNYNPSLKSRVTISRDTSKNQFSLKLSSVTAADTAVYYCARNYGSIYVNYFDYWGQGTLVTVSS VL: EIVLTQSPATLSLSPGERATLSCSASSSVSYMYWYQQKPGQAPRPLIYRTSNLASGIPARFSGSGSGTDFTLTISSLEPEDFAVYYCQQYHSYPTFGGGTKVEIK | 0.92 | 0.87
SA301a HC-I51T (antibody, name in Kabat numbering, V domains shown, IgG1 kappa) VH: QVQLQESGPGLVKPSQTLSLTCTVSGYSITSDYNSHWIRQPPGKGLEWIGYTHYSGSTNYNPSLKSRVTISRDTSKNQFSLKLSSVTAADTAVYYCARNYGSIYVNYFDYWGQGTLVTVSS VL: EIVLTQSPATLSLSPGERATLSCSASSSVSYMYWYQQKPGQAPRPLIYRTSNLASGIPARFSGSGSGTDFTLTISSLEPEDFAVYYCQQYHSYPTFGGGTKVEIK | 0.67 | 0.78
SA301a HC-I51R (antibody, name in Kabat numbering, V domains shown, IgG1 kappa) VH: QVQLQESGPGLVKPSQTLSLTCTVSGYSITSDYNSHWIRQPPGKGLEWIGYRHYSGSTNYNPSLKSRVTISRDTSKNQFSLKLSSVTAADTAVYYCARNYGSIYVNYFDYWGQGTLVTVSS VL: EIVLTQSPATLSLSPGERATLSCSASSSVSYMYWYQQKPGQAPRPLIYRTSNLASGIPARFSGSGSGTDFTLTISSLEPEDFAVYYCQQYHSYPTFGGGTKVEIK | 2 | 1.57
SA301a HC-H52S (antibody, name in Kabat numbering, V domains shown, IgG1 kappa) VH: QVQLQESGPGLVKPSQTLSLTCTVSGYSITSDYNSHWIRQPPGKGLEWIGYISYSGSTNYNPSLKSRVTISRDTSKNQFSLKLSSVTAADTAVYYCARNYGSIYVNYFDYWGQGTLVTVSS VL: EIVLTQSPATLSLSPGERATLSCSASSSVSYMYWYQQKPGQAPRPLIYRTSNLASGIPARFSGSGSGTDFTLTISSLEPEDFAVYYCQQYHSYPTFGGGTKVEIK | 0.63 | 1.16
SA301a HC-I51A (antibody, name in Kabat numbering, V domains shown, IgG1 kappa) VH: QVQLQESGPGLVKPSQTLSLTCTVSGYSITSDYNSHWIRQPPGKGLEWIGYAHYSGSTNYNPSLKSRVTISRDTSKNQFSLKLSSVTAADTAVYYCARNYGSIYVNYFDYWGQGTLVTVSS VL: EIVLTQSPATLSLSPGERATLSCSASSSVSYMYWYQQKPGQAPRPLIYRTSNLASGIPARFSGSGSGTDFTLTISSLEPEDFAVYYCQQYHSYPTFGGGTKVEIK | 0.73 | 0.81
SA301a HC-I51S (antibody, name in Kabat numbering, V domains shown, IgG1 kappa) VH: QVQLQESGPGLVKPSQTLSLTCTVSGYSITSDYNSHWIRQPPGKGLEWIGYSHYSGSTNYNPSLKSRVTISRDTSKNQFSLKLSSVTAADTAVYYCARNYGSIYVNYFDYWGQGTLVTVSS VL: EIVLTQSPATLSLSPGERATLSCSASSSVSYMYWYQQKPGQAPRPLIYRTSNLASGIPARFSGSGSGTDFTLTISSLEPEDFAVYYCQQYHSYPTFGGGTKVEIK | 0.57 | 0.82
SA301a HC-I51L (antibody, name in Kabat numbering, V domains shown, IgG1 kappa) VH: QVQLQESGPGLVKPSQTLSLTCTVSGYSITSDYNSHWIRQPPGKGLEWIGYLHYSGSTNYNPSLKSRVTISRDTSKNQFSLKLSSVTAADTAVYYCARNYGSIYVNYFDYWGQGTLVTVSS VL: EIVLTQSPATLSLSPGERATLSCSASSSVSYMYWYQQKPGQAPRPLIYRTSNLASGIPARFSGSGSGTDFTLTISSLEPEDFAVYYCQQYHSYPTFGGGTKVEIK | 0.69 | 0.64
SA301a HC-I51P (antibody, name in Kabat numbering, V domains shown, IgG1 kappa) VH: QVQLQESGPGLVKPSQTLSLTCTVSGYSITSDYNSHWIRQPPGKGLEWIGYPHYSGSTNYNPSLKSRVTISRDTSKNQFSLKLSSVTAADTAVYYCARNYGSIYVNYFDYWGQGTLVTVSS VL: EIVLTQSPATLSLSPGERATLSCSASSSVSYMYWYQQKPGQAPRPLIYRTSNLASGIPARFSGSGSGTDFTLTISSLEPEDFAVYYCQQYHSYPTFGGGTKVEIK | 3.73 | 1.93
SA301a HC-I51K (antibody, name in Kabat numbering, V domains shown, IgG1 kappa) VH: QVQLQESGPGLVKPSQTLSLTCTVSGYSITSDYNSHWIRQPPGKGLEWIGYKHYSGSTNYNPSLKSRVTISRDTSKNQFSLKLSSVTAADTAVYYCARNYGSIYVNYFDYWGQGTLVTVSS VL: EIVLTQSPATLSLSPGERATLSCSASSSVSYMYWYQQKPGQAPRPLIYRTSNLASGIPARFSGSGSGTDFTLTISSLEPEDFAVYYCQQYHSYPTFGGGTKVEIK | 0.49 | 0.59
SA301a HC-H52V (antibody, name in Kabat numbering, V domains shown, IgG1 kappa) VH: QVQLQESGPGLVKPSQTLSLTCTVSGYSITSDYNSHWIRQPPGKGLEWIGYIVYSGSTNYNPSLKSRVTISRDTSKNQFSLKLSSVTAADTAVYYCARNYGSIYVNYFDYWGQGTLVTVSS VL: EIVLTQSPATLSLSPGERATLSCSASSSVSYMYWYQQKPGQAPRPLIYRTSNLASGIPARFSGSGSGTDFTLTISSLEPEDFAVYYCQQYHSYPTFGGGTKVEIK | 0.34 | 0.88
SA301a HC-I51E (antibody, name in Kabat numbering, V domains shown, IgG1 kappa) VH: QVQLQESGPGLVKPSQTLSLTCTVSGYSITSDYNSHWIRQPPGKGLEWIGYEHYSGSTNYNPSLKSRVTISRDTSKNQFSLKLSSVTAADTAVYYCARNYGSIYVNYFDYWGQGTLVTVSS VL: EIVLTQSPATLSLSPGERATLSCSASSSVSYMYWYQQKPGQAPRPLIYRTSNLASGIPARFSGSGSGTDFTLTISSLEPEDFAVYYCQQYHSYPTFGGGTKVEIK | 1.53 | 0.95
SA301a HC-I51M (antibody, name in Kabat numbering, V domains shown, IgG1 kappa) VH: QVQLQESGPGLVKPSQTLSLTCTVSGYSITSDYNSHWIRQPPGKGLEWIGYMHYSGSTNYNPSLKSRVTISRDTSKNQFSLKLSSVTAADTAVYYCARNYGSIYVNYFDYWGQGTLVTVSS VL: EIVLTQSPATLSLSPGERATLSCSASSSVSYMYWYQQKPGQAPRPLIYRTSNLASGIPARFSGSGSGTDFTLTISSLEPEDFAVYYCQQYHSYPTFGGGTKVEIK | 0.56 | 0.62
